Substitutions are numbered along the chain they refer to. Numbers in names are those of the source. Each block holds one binder with its values, some of them ahead of it.
Columns and labels:
[1] = molecular target: T1, biotinylated human PD-L1-mFc (human, biotinylated (sites not given)); experiment: competition ELISA: blocks PD-L1-mFc-biotin binding to coated PD-1-hFc
T1 construct: also called PDL-1-mFc-biotin
Procedure: The wells were aspirated and non-specific binding sites were blocked by adding 200 μL of blocking buffer (PBS with 1% (w/v) of bovine serum albumin (BSA, Roche, Cat No:738328)) and incubating for 1 hour at 37° C. After the plate was washed three times with wash buffer (PBS with 0.05% (v/v) Tween20 (Sigma, Cat No:P1379)), 100 μL/well of 1:3 serial dilutions of hybridoma (FIG. 4), chimeric (FIG. 5), or humanized (FIG. 6) anti-PD-L1 antibodies in blocking buffer (starting from 20 μg/mL) were added and incubated at 37° C. for 1 hour. […] After the plate was washed 3 times, secondary antibody (Avidin HRP eBioscience cat No.: E07418-1632, 1:500, 100 μl/well) was added and incubated at 37° C. for 0.5 hour. After the plate was washed, 100 μL/well of substrate solution TMB (eBioscience, Cat No: 00-4201-56) was added and the plate was incubated for 3min at room temperature. 100 μL/well of stop solution (2N H₂SO₄) was added to stop the reaction. The colorimetric signals were developed and read at 450 nm using an Auto Plate SpectraMax Plus (Supplier: Moleculer Devices; Model: MNR0643; Software: SoftMax Pro v5.4). Data were analyzed using GraphPad Prism 5 and IC50 was calculated (FIGS. 4-6; Tables 8-10).

PD-L1 on 293T cells [2] = molecular target: T2, PD-L1 on 293T cells (UniProt Q9NZQ7 19-290); experiment: flow cytometry competition: blocks biotin-labeled PD-1 binding to PD-L1-293T cells
T2 construct: whole, on cells; also called PD-L1-293T; 293T-PD-L1 cells
T2 sequence (Q9NZQ7 19-290 limits assumed): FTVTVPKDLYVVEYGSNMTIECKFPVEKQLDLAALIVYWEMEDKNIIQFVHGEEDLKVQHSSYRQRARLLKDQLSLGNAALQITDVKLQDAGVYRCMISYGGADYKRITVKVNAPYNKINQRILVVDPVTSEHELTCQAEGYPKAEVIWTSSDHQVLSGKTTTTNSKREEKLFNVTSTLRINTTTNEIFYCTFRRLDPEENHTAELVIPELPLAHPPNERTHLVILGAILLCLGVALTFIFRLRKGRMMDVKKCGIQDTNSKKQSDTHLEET
Procedure: Briefly, PD-L1-293T cells were suspended in FACS buffer (PBS with 3% fetal calf serum). Various concentrations of the hybridoma (FIG. 10), chimeric (FIG. 11), or humanized (FIG. 12) anti-PD-L1 antibodies were added to the cell suspension and incubated at 4° C. for 60 minutes in 96 well plates. […] The cells were washed 3 times with PBS and incubated with mouse anti-biotin PE (Biolegend, cat# 409004). The cell-associated fluorescence was then detected by flow cytometry analysis using FACS array.

hPD-L1-mFc = molecular target: T3, hPD-L1-mFc (human); experiment: ELISA, coated PD-L1-mFc
T3 construct: it may hold a signal peptide; also called human PD-L1-mFc; PD-L1-mFc (Crownbio)
T3 sequence (chain, as listed by the source limits assumed): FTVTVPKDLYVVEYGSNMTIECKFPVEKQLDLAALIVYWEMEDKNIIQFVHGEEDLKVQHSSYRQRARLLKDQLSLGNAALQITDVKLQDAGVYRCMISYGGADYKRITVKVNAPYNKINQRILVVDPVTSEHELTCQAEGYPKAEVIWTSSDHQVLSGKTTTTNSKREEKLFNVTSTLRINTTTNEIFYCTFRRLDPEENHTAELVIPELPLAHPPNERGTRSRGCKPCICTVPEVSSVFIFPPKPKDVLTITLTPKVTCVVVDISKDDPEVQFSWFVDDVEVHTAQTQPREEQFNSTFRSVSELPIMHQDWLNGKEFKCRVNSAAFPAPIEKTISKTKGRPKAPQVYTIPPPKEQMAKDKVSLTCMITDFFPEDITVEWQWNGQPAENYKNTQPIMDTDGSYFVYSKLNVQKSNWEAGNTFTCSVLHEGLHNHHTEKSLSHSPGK
Procedure: (§1) ELISA binding analyses were conducted based on human PD-L1-mFc (for chimeric and humanized antibody detection) and PD-L1-hFc protein (for hybridoma antibody detection). 96-well plates (Costar, Cat No: 9018) were coated with 100 μL of 2 μg/ml PD-L1-mFc (Crownbio) in coating buffer PBS (Hyclone, Cat No: SH30256.01B) overnight at 4° C. The wells were aspirated and non-specific binding sites were blocked by adding 200 μL of blocking buffer (PBS with 1% (w/v) of bovine serum albumin (BSA, Roche, Cat No:738328)) and incubating for 1 hour at 37° C. After the plates were washed three times with wash buffer (PBS with 0.05% (v/v) Tween20 (Sigma, Cat No:P1379)), 100 μL/well of 1:10 serial dilutions of hybridoma (FIG. 1), chimeric (FIG. 2), or humanized (FIG. 3) anti-PD-L1 antibodies in blocking buffer (starting from 20 μg/mL) were added and incubated at room temperature for 1 hour. The plates were washed and incubated with 100 μL/well of Goat anti-Mouse IgG (H+L) (Thermo, Cat No: 31432) in blocking buffer for 60 min. After the plates were washed, 100 μL/well of substrate solution TMB (eBioscience, Cat No: 00-4201-56) were added and the plates were incubated for 2 min at room temperature. 100 μL/well of stop solution (2N H₂SO₄) was added to stop the reaction. The colorimetric signals were developed and read at 450 nm using an Auto Plate SpectraMax Plus (Supplier: Moleculer Devices; Model: MNR0643; Software: SoftMax Pro v5.4). Data were analyzed using GraphPad Prism 5 and EC50 was calculated (FIGS. 1-3; Tables 5-7).

Human PD-L1 = molecular target: T4, Human PD-L1 (human, UniProt Q9NZQ7 19-238, limits assumed); experiment: SPR (Biacore 3000), antibody captured, PD-L1 as analyte, 1:1 fit
T4 construct: also called PD-L1 analyte (Biacore); hPD-L1
T4 sequence (Q9NZQ7 19-238 limits assumed): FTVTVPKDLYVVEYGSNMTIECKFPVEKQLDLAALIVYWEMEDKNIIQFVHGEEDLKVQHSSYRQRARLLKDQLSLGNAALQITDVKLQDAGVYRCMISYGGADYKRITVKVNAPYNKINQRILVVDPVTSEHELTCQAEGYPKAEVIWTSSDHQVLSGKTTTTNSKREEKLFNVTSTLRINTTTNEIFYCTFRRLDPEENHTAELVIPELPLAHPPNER
Procedure: The binding kinetics between PD-L1 and PD-L1 antibodies were measured by Biacore analysis, which was performed at 25° C. on a Biacore3000 instrument and recorded with a data collection rate of 1 Hz. Polyclonal rabbit anti-mouse IgG (GE, BR-1008-38) was diluted with 10 mM pH 5.0 sodium acetate and immobilized onto reference and experiment flow cells of a CM5 biosensor chip to around 15000 RU using an amine coupling kit (GE, BR10050). […] PD-L1 analyte series were prepared by diluting the stocks with running buffer to 100 nM followed by 2× serial dilution in the same buffer down to 0.78 nM. Analytes were injected in series over the reference and experiment flow cells for 3 minutes at a flow rate of 30 μL/minute. Running buffer (PBS with 0.05% P20) was allowed to flow over for 10 minutes at a flow rate of 30 μL/minute. At the end of each cycle, the biosensor surface was regenerated with 3 minutes injection of 10 mM pH1.7 Glycine-HCl buffer at a flow rate of 10 μL/minute. For each analyte sample injection (i.e. each cycle), binding responses obtained from the experimental biosensor surface were double referenced by subtracting simultaneously recorded responses from the reference surface followed by additional subtraction of responses from a single referenced running buffer sample. The association and dissociation rate constants (ka and kd) were determined simultaneously by fitting double-referenced sensorgrams of the entire titration series to Langmuir model (1:1) using Biaevaluation 4.0 software. The dissociation constant, KD, was calculated from the determined rate constants by the relation KD=kd/ka.

PD-L1 on 293T cells [3] = molecular target: T2, PD-L1 on 293T cells; experiment: flow cytometry on PD-L1-293T cells
Procedure: Cell binding analyses of anti-PD-L1 antibodies were performed based on binding to a 293T cell line stably expressing PD-L1 (PD-L1-293T). 2×10⁵ 293T-PD-L1 cells were added into each well of 96-well culture plates and incubated with the indicated antibody (20 μg/ml with the dilution of 1:5) at 4° C. for 1 h. After the cells were washed three times with FACS buffer, the secondary antibody (PE Goat anti-mouse: 1:200; PE mouse anti-human: 1:10) was added to the cells at 100 μl/well, and incubated at 4° C. for 40 min. Cells were washed three times with FACS buffer and analyzed by FACS Array.

hPD-L1-hFc = molecular target: T5, hPD-L1-hFc (human); experiment: ELISA, coated PD-L1-hFc
T5 construct: it may hold a signal peptide ('open reading frame of the extracellular domain'); also called PD-L1-hFc protein; human PD-L1 extracellular domain fused with human Fc tag
T5 sequence (chain, as listed by the source limits assumed): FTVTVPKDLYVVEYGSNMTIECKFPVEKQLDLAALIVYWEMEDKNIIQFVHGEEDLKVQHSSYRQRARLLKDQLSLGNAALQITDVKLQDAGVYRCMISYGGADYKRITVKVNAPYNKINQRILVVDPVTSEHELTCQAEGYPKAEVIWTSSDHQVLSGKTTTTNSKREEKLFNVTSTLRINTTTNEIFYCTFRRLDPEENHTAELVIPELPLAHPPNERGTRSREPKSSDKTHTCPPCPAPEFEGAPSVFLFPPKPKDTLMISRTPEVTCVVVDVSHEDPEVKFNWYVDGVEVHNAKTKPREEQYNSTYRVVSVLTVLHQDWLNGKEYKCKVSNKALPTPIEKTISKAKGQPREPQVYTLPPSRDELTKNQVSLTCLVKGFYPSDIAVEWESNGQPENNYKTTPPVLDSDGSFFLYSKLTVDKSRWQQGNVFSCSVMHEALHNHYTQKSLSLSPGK
Procedure: as §1

IC50 [1]: 0.848 µg/mL
IC50 (PD-L1 on 293T cells [2]): 0.042 µg/mL
EC50 (hPD-L1-mFc): 0.134 µg/mL
B1: ch8H4-hIgG4 (antibody, V domains shown)
VH: EVKLVESGGGLVKPGGSLKLSCAASGFTFRSYGMSWARQIPEKRLEWVASISSGGTTYYLGSVQGRFTISRDNARNILYLQMSSLRSEDTAMYYCARGYDAGFAYWGQGTLVSVSS
VL: DIVLTQSPASLAVSLGQRATISCRASQSVSTSSYSYMHWYQQKPGQPPKLLIKYASNLESGVPARFSGSGSGTDFTLNIHPVEEEDTATYYCQNSWEIPYTFGGGTKLEIKR
notes: Mouse-human chimeric IgG4 (F234A/L235A), human kappa; also called Chimeric 8H4-IgG4 (F234A/L235A); chimeric 8H4-hIgG4

Kd (Human PD-L1): 2.28 nM
B2: ch13C5 (antibody)
VH: EVKLVESGGGLVKPGGSLKLSCAASGFIFRSYGMSWVRQTPEKRLEWVASISSGGSTYYPDSVKGRFTISRDNARNILYLQMSSLRSEDTAMYDCARGYDSGFAYWGQGTLVTVSE
light: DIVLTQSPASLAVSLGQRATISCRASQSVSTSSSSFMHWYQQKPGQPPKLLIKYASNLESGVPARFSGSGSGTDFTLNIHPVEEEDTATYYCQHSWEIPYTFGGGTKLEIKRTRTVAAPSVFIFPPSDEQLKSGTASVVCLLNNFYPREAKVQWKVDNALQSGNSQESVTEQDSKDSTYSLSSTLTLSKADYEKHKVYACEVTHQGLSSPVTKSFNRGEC

EC50 (PD-L1 on 293T cells [3]): 0.0453 µg/mL
EC50 (hPD-L1-hFc): 0.0651 µg/mL
Kd (Human PD-L1): 1.35 nM
IC50 [1]: 0.872 µg/mL
IC50 (PD-L1 on 293T cells [2]): 0.0289 µg/mL
B3: m13C5 (antibody, V domains shown)
VH: B2 VH
VL: B1 VL with Y34S, Y36F, N94H
notes: Murine hybridoma IgG (printed 'mIgG'); also called 13C5-mIgG; 13C5 murine

EC50 (PD-L1 on 293T cells [3]): 0.0478 µg/mL
EC50 (hPD-L1-hFc): 0.0487 µg/mL
Kd (Human PD-L1): 3.59 nM
IC50 [1]: 0.655 µg/mL
IC50 (PD-L1 on 293T cells [2]): 0.0211 µg/mL
B4: m15F1 (antibody, V domains shown)
VH: B2 VH with V2E, I28S, R30S, T57I, D94Y, S101A, Y105F, V114A, E116A
VL: DIVLTQSPASLAVSLGQRATISCRASQSVSTSSYSYVHWYQQKPGQPPKLLIKYASNLESGVPARFSGSGSGTDFTLNIHPVEEEDTATYYCQHSWEIPYTFGGGTKLEIK
notes: Murine hybridoma IgG (printed 'mIgG'); also called 15F1-mIgG; 15F1 murine

EC50 (PD-L1 on 293T cells [3]): 0.0337 µg/mL
EC50 (hPD-L1-hFc): 0.0312 µg/mL
Kd (Human PD-L1): 4.78 nM
IC50 [1]: 0.613 µg/mL
IC50 (PD-L1 on 293T cells [2]): 0.0491 µg/mL
B5: m5G9 (antibody, V domains shown)
VH: B2 VH with I28T, S56T, T68I, D94Y, R97K, T113I, E116A
VL: B4 VL with A9P, Y34S, V37M
notes: Murine hybridoma IgG (printed 'mIgG'); also called 5G9-mIgG; 5G9 murine

EC50 (PD-L1 on 293T cells [3]): 0.0474 µg/mL
EC50 (hPD-L1-hFc): 0.0314 µg/mL
Kd (Human PD-L1): 6.01 nM
IC50 [1]: 0.892 µg/mL
IC50 (PD-L1 on 293T cells [2]): 0.0381 µg/mL
B6: m7B4 (antibody, V domains shown)
VH: EVKLFESGGGLVQPGGSLKLSCVASGFDFSTYWMHWVRQAPGQGLEWIGQINPDSTTINYAPSLKDRFIISRDNAKNTLFLQMSKVRSEDTALYYCAKPGDYGYDFDCWGQGTTLTVSS
VL: DVLMTQTPLYLPVSLGDQASISCRSSQIIVHSNANTYLEWFLQKPGQSPKLLIYKVSNRFSGVPDRFSGSGSGTDFTLKISRVEAEDLGVYYCFQGSHVPYTFGGGTKLEIK
notes: Murine hybridoma IgG (printed 'mIgG'); also called 7B4-mIgG; 7B4 murine

— patent US20170204184A1 (CB THERAPEUTICS, published 2017)
